The text below walks through data of patent publication US8815529B2, “Sulfotransferase assay” (Research & Diagnostics Systems, Inc., priority 2011, dated 2014).

Assay type in all cases: biochemical
The nature of data set [1]: SULT1A1 enzyme dose curve, phosphatase-coupled sulfotransferase assay. The note with it: for rate of phosphate release: 0.25 mM PAPS, 0.25 mM pNP. The protocol:
(§1) In the following examples, the gPAPP used was recombinant mouse gPAPP expressed in CHO cells as an N-terminal His-tagged recombinant protein containing amino acids from E51 to K356, created by R & D Systems. The sequence was based on accession number NP 808398 from the National Center for Biotechnology Information. The chondroitin sulfate (CS) and p-nitrophenol (pNP) were obtained from Sigma Aldrich. The PAPS was prepared by R & D Systems using recombinant S. cerevisiae ATP sulurylase and P. chrysogenum APS kinase. The APS kinase was also prepared by R & D Systems. Recombinant human SULT1A1, CHST3, CD73, TNAP and Malachite Green Phosphate Detection Kit were from R & D Systems. Protein concentrations were quantified using the Bradford assay as described by Bradford, M. M., A rapid and sensitive method for the quantitation of microgram quantities of protein utilizing the principle of protein-dye binding. Anal Biochem. 1976. Vol 72, Page 248-254, the relevant portions of which are hereby incorporated by reference. Phosphate levels were determined using the Malachite Green Phosphate Detection Kit available from R & D Systems, according to the package instructions. All examples were performed in a buffer of 25 mM Tris at pH 7.5.
A series of reactions was performed by combining various amounts of SULT1A1 with 0.25 mM PAPS and 0.25 mM pNP and with either 1 μg gPAPP alone, or both 1 μg gPAPP and 0.1 μg CD73 in 50 μL of Tris buffer containing 10 mM of MgCl2 at pH 7.5. […] Since gPAPP and CD73 together release two equivalents of phosphate from each PAP, the specific activity of SULT1A1 was averaged to 40.0±1.9 pmol/min/μg. This specific activity is consistent with the known results obtained using radioisotope assays.

The nature of data set [2]: Coupling capacity of gPAPP. Particulars: 10 mM Mg2+, pH 7.5. The protocol:
as §1, with “Vol 72, Page 248-254, the relevant portions of which are hereby incorporated by reference.” left out, “All examples were performed in a buffer of 25 mM Tris at pH 7.5.” left out
In this example, the coupling capacity of gPAPP was determined. […] The coupling capacity of gPAPP was determined by combining 1 μg gPAPP with increasing amounts of PAP, in the presence or absence of 0.5 mM PAPS in 50 μL assay buffer containing 10 mM Mg^2+ at pH 7.5 for either 20 or 40 minutes. […]

Data set [3] can be described thus: gPAPP activity: Mg2+ and pH dependence. The note with it: 0.025 μg gPAPP, 25 nmol PAP. The procedure: as §1, with “Vol 72, Page 248-254, the relevant portions of which are hereby incorporated by reference.” left out, “All examples were performed in a buffer of 25 mM Tris at pH 7.5.” left out
First, the activity of gPAPP in the presence of Mg^2+ was tested by combining 0.025 μg gPAPP, 25 nmol PAP and increasing amounts of Mg^2+ in 50 μL of assay buffer of 25 mM Tris at pH 7.5. […] In a second experiment, the activity of gPAPP was evaluated at various pH levels. […]

Data set [4] can be described thus: CHST3 enzyme dose curve, gPAPP-coupled assay. The note with it: 10 mg/ml CS, 0.5 mM PAPS, 1 μg gPAPP. The protocol: as §1, with “Vol 72, Page 248-254, the relevant portions of which are hereby incorporated by reference.” left out, “All examples were performed in a buffer of 25 mM Tris at pH 7.5.” left out
First, the optimal concentration for CS was visually determined to be >5 mg/ml and the optimal concentration for PAPS was visually determined to be about 0.5 mM using FIGS. 10A and 10B by finding the substrate concentration corresponding to the highest point in the curves. […]

B1: SULT1A1: recombinant human sulfotransferase SULT1A1 from R & D Systems (protein, UniProt P50225 1-295, looked up)
Sulfotransferase 1A1: MELIQDTSRPPLEYVKGVPLIKYFAEALGPLQSFQARPDDLLISTYPKSGTTWVSQILDMIYQGGDLEKCHRAPIFMRVPFLEFKAPGIPSGMETLKDTPAPRLLKTHLPLALLPQTLLDQKVKVVYVARNAKDVAVSYYHFYHMAKVHPEPGTWDSFLEKFMVGEVSYGSWYQHVQEWWELSRTHPVLYLFYEDMKENPKREIQKILEFVGRSLPEETVDFVVQHTSFKEMKKNPMTNYTTVPQEFMDHSISPFMRKGMAGDWKTTFTVAQNERFDADYAEKMAGCSLSFRSEL
In the case of B1, the specific activity in data set [1] (averaged over gPAPP alone and gPAPP plus CD73) was 40.0 ± 1.9 pmol/min/µg. For the same molecule, the “rate of phosphate release” value in data set [1] (coupled to both gPAPP and CD73) was found to be 83.7 pmol/min/µg; in data set [1] (coupled to gPAPP alone), 38.1 pmol/min/µg.

B2: gPAPP: recombinant mouse gPAPP expressed in CHO cells, N-terminal His-tagged, amino acids E51 to K356 (protein, UniProt Q80V26 51-356, looked up, fragment)
chain: EVASDGGTVDLREMLAVAVLAAERGGDEVRRVRESNVLHEKSKGKTREGADDKMTSGDVLSNRKMFYLLKTAFPNVQINTEEHVDASDKEVIVWNRKIPEDILKEIAAPKEVPAESVTVWIDPLDATQEYTEDLRKYVTTMVCVAVNGKPVLGVIHKPFSEYTAWAMVDGGSNVKARSSYNEKTPKIIVSRSHAGMVKQVALQTFGNQTSIIPAGGAGYKVLALLDVPDMTQEKADLYIHVTYIKKWDICAGNAILKALGGHMTTLNGEEISYTGSDGIEGGLLASIRMNHQALVRKLPDLEKSGH
modifications: N-terminal His tag
notes: recombinant mouse gPAPP expressed in CHO cells, N-terminal His-tagged, amino acids E51 to K356
With B2, the “coupling capacity (PAP completely hydrolysed by 1 μg gPAPP)” value is listed as 8 nmol in data set [2] (20 minute reaction) and 15 nmol in data set [2] (40 minute reaction). Besides, the “Mg2+ concentration at which maximum activity was achieved” value in data set [3] (25 mM Tris pH 7.5) is on record as “greater than 10 mM”. The “pH of optimal activity” value in data set [3] (10 mM Mg2+) is given as about 7.5.

B3: CHST3: recombinant human carbohydrate sulfotransferase 3 from R & D Systems (protein, UniProt Q7LGC8 1-479, looked up)
Carbohydrate sulfotransferase …: MEKGLTLPQDCRDFVHSLKMRSKYALFLVFVVIVFVFIEKENKIISRVSDKLKQIPQALADANSTDPALILAENASLLSLSELDSAFSQLQSRLRNLSLQLGVEPAMEAAGEEEEEQRKEEEPPRPAVAGPRRHVLLMATTRTGSSFVGEFFNQQGNIFYLFEPLWHIERTVSFEPGGANAAGSALVYRDVLKQLFLCDLYVLEHFITPLPEDHLTQFMFRRGSSRSLCEDPVCTPFVKKVFEKYHCKNRRCGPLNVTLAAEACRRKEHMALKAVRIRQLEFLQPLAEDPRLDLRVIQLVRDPRAVLASRMVAFAGKYKTWKKWLDDEGQDGLREEEVQRLRGNCESIRLSAELGLRQPAWLRGRYMLVRYEDVARGPLQKAREMYRFAGIPLTPQVEDWIQKNTQAAHDGSGIYSTQKNSSEQFEKWRFSMPFKLAQVVQAACGPAMRLFGYKLARDAAALTNRSVSLLEERGTFWVT
As to B3, the specific activity in data set [4] was 1110 pmol/min/µg.
